What was measured:
[1] = biological target: soluble recombinant human αvβ6 (human) (UniProt P06756); assay: ELISA, coated hsαvβ6
[2] = biological target: soluble recombinant human αvβ6 (human) (UniProt P06756); assay: biotin-hsαvβ6 to coated LAP, blocking
[3] = biological target: soluble recombinant human αvβ6 (human) (UniProt P06756); assay: ELISA on plate-bound soluble αvβ6 in Ca/Mg [panel F]
[4] = biological target: soluble recombinant human αvβ6 (human) (UniProt P06756); assay: ELISA on plate-bound soluble αvβ6 in EDTA (10 mM) [panel F]
[5] = biological target: soluble recombinant human αvβ6 (human) (UniProt P06756); assay: ELISA on plate-bound soluble αvβ6 in Mn (1 mM MnCl2) [panel F]
[6] = biological target: αvβ6 on β6-transfected SW480 cells (UniProt P06756); assay: cell-based or functional assay
Chain of αvβ6 on β6-transfected SW480 cells (P06756 31-1048, chain 1 of 2): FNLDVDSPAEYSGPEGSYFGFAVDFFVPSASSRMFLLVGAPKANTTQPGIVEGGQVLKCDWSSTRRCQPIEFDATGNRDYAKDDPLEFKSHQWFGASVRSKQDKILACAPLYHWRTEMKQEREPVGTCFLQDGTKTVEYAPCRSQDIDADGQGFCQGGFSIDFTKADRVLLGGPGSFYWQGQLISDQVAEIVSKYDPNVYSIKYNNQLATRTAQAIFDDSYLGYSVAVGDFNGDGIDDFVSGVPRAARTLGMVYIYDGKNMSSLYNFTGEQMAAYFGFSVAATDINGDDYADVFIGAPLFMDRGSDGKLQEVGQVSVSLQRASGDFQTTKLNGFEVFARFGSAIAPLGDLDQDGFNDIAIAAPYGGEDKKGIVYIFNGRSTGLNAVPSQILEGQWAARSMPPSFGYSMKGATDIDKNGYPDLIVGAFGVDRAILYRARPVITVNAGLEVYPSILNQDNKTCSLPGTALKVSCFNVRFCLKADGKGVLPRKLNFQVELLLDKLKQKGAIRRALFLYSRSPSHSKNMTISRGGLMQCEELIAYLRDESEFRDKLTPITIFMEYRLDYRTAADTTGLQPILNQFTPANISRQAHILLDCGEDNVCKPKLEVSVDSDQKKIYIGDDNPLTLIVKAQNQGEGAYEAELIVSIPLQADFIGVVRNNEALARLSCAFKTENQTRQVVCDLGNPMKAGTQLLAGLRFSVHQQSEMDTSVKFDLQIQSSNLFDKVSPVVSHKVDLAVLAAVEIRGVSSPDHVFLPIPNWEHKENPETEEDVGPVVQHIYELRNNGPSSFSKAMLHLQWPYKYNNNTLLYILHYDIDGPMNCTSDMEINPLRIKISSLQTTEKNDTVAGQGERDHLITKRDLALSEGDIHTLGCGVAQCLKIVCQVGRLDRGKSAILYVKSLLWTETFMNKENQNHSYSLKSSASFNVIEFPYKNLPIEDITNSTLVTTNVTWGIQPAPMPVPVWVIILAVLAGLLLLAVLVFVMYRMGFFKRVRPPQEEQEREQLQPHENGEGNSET
Chain of αvβ6 on β6-transfected SW480 cells (P18564 22-788, chain 2 of 2, further chain): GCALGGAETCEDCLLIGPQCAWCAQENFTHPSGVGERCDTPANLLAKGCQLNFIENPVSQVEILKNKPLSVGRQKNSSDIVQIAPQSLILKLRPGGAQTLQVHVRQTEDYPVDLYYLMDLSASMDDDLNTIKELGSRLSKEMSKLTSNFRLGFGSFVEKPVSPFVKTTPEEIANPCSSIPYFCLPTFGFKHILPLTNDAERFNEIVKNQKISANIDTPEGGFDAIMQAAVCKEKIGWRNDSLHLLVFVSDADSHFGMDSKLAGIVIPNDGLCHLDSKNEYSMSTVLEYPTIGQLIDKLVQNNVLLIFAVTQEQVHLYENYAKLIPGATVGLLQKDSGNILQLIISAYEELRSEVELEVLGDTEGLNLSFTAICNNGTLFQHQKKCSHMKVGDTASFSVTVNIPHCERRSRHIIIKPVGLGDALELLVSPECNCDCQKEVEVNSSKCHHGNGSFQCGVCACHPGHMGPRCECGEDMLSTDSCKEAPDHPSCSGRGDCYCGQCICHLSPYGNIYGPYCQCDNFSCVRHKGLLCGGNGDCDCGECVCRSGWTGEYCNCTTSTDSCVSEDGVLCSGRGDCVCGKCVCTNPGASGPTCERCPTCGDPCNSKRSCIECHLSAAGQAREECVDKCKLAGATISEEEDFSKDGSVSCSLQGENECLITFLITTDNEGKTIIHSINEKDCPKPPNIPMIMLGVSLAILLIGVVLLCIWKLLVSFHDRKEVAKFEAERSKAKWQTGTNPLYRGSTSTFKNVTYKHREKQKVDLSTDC

[7] = biological target: αvβ6 on β6-transfected FDC-P1 cells (murine) (UniProt P43406); assay: β6-FDC-P1 cells to coated LAP, blocking
[8] = biological target: soluble recombinant human αvβ6 (human) (UniProt P06756); assay: ELISA on plate-bound soluble αvβ6 in Ca/Mg [panel C]
[9] = biological target: soluble recombinant human αvβ6 (human) (UniProt P06756); assay: KinExA, solution affinity for soluble αvβ6, with CaCl2 and MgCl2
[10] = biological target: soluble recombinant human αvβ6 (human) (UniProt P06756); assay: ELISA on plate-bound soluble αvβ6 in Mn (1 mM MnCl2) [panel C]
[11] = biological target: αvβ6 on β6-transfected FDC-P1 cells (murine) (UniProt P43406); assay: adhesion of labelled β6-transfected FDC-P1 cells to plate-bound LAP, % binding; blocked ligand LAP
[12] = biological target: αvβ6 on β6-transfected FDC-P1 cells (murine) (UniProt P43406); assay: as above; remark: listed apart in the source
[13] = biological target: αvβ6 on β6-transfected FDC-P1 cells (murine) (UniProt P43406); assay: as above; remark: listed apart in the source
[14] = biological target: soluble recombinant human αvβ6 (human) (UniProt P06756); assay: KinExA, solution affinity for soluble αvβ6
[15] = biological target: soluble recombinant human αvβ6 (human) (UniProt P06756); assay: ELISA on plate-bound soluble αvβ6 in Ca/Mg [panel B]
[16] = biological target: soluble recombinant human αvβ6 (human) (UniProt P06756); assay: ELISA on plate-bound soluble αvβ6 in EDTA (10 mM) [panel B]
[17] = biological target: soluble recombinant human αvβ6 (human) (UniProt P06756); assay: ELISA on plate-bound soluble αvβ6 in Mn (1 mM MnCl2) [panel B]
[18] = biological target: αvβ6 on β6-transfected SW480 cells (UniProt P06756); assay: adhesion of SW480β6 cells to LAP, % binding; blocked ligand LAP [SW480β6 panel]
[19] = biological target: αvβ6 of human tumor cells and tissues (Detroit 562 cells, SCC-14 cells, carcinoma sections) (human) (UniProt P06756); assay: adhesion of Detroit562 cells to LAP, % binding; blocked ligand LAP [Detroit562 panel]
Chain of αvβ6 of human tumor cells and tissues (Detroit 562 cells, SCC-14 cells, carcinoma sections) (human) (P06756 31-1048, chain 1 of 2): as the sequence (P06756 31-1048, chain 1 of 2) above
Chain of αvβ6 of human tumor cells and tissues (Detroit 562 cells, SCC-14 cells, carcinoma sections) (human) (P18564 22-788, chain 2 of 2, further chain): as the sequence (P18564 22-788, chain 2 of 2, further chain) above

Chain of soluble recombinant human αvβ6 (human) (P06756 31-992, chain 1 of 2): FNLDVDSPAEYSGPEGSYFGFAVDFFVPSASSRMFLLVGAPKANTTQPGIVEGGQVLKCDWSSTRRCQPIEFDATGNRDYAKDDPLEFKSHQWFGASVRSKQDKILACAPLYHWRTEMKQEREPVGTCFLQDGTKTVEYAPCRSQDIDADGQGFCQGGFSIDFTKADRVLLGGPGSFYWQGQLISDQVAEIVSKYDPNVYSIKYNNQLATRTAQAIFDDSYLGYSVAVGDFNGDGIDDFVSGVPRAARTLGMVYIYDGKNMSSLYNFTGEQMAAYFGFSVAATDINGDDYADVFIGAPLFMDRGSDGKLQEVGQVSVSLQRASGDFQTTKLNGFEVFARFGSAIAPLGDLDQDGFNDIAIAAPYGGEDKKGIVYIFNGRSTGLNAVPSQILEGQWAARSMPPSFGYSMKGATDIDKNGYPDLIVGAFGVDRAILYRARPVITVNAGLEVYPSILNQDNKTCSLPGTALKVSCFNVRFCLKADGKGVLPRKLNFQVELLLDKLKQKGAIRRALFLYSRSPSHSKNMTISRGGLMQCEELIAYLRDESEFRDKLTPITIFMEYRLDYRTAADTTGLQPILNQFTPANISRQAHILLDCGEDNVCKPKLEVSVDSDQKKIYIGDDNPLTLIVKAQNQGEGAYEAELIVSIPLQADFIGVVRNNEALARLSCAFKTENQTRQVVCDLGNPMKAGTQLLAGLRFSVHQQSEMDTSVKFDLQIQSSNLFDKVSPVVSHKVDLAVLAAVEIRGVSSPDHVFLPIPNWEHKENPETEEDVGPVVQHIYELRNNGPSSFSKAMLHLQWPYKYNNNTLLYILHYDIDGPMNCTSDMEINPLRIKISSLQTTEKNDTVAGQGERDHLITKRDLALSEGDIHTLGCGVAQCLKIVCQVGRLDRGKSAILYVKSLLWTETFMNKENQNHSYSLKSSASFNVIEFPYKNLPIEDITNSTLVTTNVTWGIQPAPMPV
Chain of soluble recombinant human αvβ6 (human) (P18564 22-709, chain 2 of 2, further chain): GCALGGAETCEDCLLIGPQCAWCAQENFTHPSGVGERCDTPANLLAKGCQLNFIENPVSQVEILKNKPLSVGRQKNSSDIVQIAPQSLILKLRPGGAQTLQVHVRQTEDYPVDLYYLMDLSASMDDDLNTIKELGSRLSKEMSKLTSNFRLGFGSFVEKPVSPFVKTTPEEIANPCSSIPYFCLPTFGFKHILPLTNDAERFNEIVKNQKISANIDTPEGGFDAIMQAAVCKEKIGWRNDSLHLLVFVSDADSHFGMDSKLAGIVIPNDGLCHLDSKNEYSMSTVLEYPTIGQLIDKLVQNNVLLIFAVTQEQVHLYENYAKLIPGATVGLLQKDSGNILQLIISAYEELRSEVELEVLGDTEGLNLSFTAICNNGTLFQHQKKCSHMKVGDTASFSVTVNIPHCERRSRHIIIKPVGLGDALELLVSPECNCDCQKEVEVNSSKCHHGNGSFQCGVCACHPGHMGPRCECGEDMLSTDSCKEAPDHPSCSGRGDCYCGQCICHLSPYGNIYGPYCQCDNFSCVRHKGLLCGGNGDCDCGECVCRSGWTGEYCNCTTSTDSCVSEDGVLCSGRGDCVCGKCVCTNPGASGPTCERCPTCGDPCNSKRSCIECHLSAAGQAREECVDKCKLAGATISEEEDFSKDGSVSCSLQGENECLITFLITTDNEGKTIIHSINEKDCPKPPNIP

EC50 [1]	IC50 [2]	EC50 (read off the curve) [3]	EC50 (read off the curve) [4]	EC50 (read off the curve) [5]	PAI-1 luciferase IC50 [6]	IC50 [7]	EC50 (read off the curve) [8]	Kd [9]	EC50 (read off the curve) [10]	IC50 [11]	IC50 [12]	IC50 [13]	Kd [14]	EC50 (read off the curve) [15]	EC50 (read off the curve) [16]	EC50 (read off the curve) [17]	IC50 (read off the curve) [18]	IC50 (read off the curve) [19]	Substance
0.0271 µg/mL	0.229 µg/mL	0.01 µg/mL	0.01 µg/mL	0.01 µg/mL															L230 (antibody)
0.0175 µg/mL	0.169 µg/mL				312 ng/mL	0.023 µg/mL	0.02 µg/mL	0.0228 nM	0.03 µg/mL	0.083 µg/mL	0.061 µg/mL	0.101 µg/mL							6.8G6 (antibody)
0.0767 µg/mL	0.271 µg/mL				375 ng/mL	0.017 µg/mL							0.0156 nM	0.09 µg/mL	0.09 µg/mL	0.09 µg/mL	30 ng/mL	40 ng/mL	6.3G9 (antibody)
